Series [1] concerns the target T1, mouse GIP receptor (Mus musculus, UniProt Q0P543).
T1 construct: expressed in transfected cells; host or cells: BHK cells (parent line BHKTS13) containing CRE luciferase
T1 sequence (Q0P543 19-460): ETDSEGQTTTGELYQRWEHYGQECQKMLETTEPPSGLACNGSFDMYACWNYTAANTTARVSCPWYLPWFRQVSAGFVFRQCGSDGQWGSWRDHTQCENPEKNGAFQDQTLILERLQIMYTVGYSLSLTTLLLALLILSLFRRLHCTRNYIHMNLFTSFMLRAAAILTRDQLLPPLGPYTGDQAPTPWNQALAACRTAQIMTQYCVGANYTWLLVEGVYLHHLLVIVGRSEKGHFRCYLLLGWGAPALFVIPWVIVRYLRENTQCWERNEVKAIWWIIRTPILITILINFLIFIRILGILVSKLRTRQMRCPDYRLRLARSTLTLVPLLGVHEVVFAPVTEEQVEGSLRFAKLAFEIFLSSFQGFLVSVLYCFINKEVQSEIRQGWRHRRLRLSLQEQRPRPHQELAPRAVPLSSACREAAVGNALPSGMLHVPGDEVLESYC
Briefly: In vitro functional potency (CRE luciferase; whole cells), mouse GIPR. Type of series: cell-based. The settings on record: BHK cells expressing mouse GIP receptor.
Procedure: (§1) The purpose of this example is to test the functional activity, or potency, of the compounds in vitro at the human and mouse GLP-1, GIP, and Gcg receptors. The in vitro functional potency is the measure of target receptor activation in a whole cell assay.
(§2) In vitro functional potency was determined by measuring the response of the target receptor in a reporter gene assay in individual cell lines. The assay was performed in stably transfected BHK cell lines that expresses one of the following G-protein coupled receptors: human GLP-1 receptor, human GIP receptor, human Gcg receptor, mouse GLP-1 receptor, mouse GIP receptor, or mouse Gcg receptor; and where each cell line contains the DNA for the cAMP response element (CRE) coupled to a promoter and the gene for firefly luciferase (CRE luciferase). When the respective receptor is activated, it results in the production of cAMP, which in turn results in expression of the luciferase protein. […] The luminescence is measured as the readout for the assay. […]
(§3) The data from the microtiter plate reader was first regressed in an Excel in order to calculate the x-axis, log scale concentrations based on the individual test compound's stock concentration and the dilutions of the assay. […] A minimum of two replicates was measured for each sample. […]

Series [2] deals with T2, mouse Gcg receptor (Mus musculus, UniProt Q61606).
T2 construct: expressed in transfected cells; host or cells: BHK cells (parent line BHKTS13) containing CRE luciferase
T2 sequence (Q61606 27-485): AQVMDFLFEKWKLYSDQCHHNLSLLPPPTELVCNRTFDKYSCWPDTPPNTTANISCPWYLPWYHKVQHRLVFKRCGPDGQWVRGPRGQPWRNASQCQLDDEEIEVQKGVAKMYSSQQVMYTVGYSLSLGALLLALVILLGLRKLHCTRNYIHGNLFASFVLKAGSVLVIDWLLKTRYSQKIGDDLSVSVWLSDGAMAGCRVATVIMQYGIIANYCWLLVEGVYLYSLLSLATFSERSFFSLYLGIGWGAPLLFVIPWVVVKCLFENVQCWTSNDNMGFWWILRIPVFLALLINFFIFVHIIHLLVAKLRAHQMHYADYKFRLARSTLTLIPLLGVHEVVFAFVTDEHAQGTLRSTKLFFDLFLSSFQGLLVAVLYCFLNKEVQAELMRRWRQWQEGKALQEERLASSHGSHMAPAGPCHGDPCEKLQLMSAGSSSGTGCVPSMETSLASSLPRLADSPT
Kind of series: In vitro functional potency (CRE luciferase; whole cells), mouse GcgR. It is filed as cell-based. The settings on record: BHK cells expressing mouse Gcg receptor.
Procedure: as §1, §2, §3

The target in series [3] is T3, mouse GLP-1 receptor (Mus musculus, UniProt O35659).
T3 construct: expressed in transfected cells; host or cells: BHK cells (parent line BHKTS13) containing CRE luciferase
T3 sequence (O35659 22-463): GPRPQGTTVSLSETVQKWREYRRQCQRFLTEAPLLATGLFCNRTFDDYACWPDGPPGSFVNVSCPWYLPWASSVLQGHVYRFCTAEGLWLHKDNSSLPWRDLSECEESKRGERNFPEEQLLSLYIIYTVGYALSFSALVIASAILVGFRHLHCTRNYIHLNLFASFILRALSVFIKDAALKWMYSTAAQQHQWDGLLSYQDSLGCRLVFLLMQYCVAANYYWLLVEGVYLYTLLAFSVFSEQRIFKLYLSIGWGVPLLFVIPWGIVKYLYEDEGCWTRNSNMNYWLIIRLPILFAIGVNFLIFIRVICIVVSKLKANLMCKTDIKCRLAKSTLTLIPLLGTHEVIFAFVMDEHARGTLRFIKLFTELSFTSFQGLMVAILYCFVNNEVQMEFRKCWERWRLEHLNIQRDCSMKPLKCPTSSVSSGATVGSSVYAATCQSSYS
Briefly: In vitro functional potency (CRE luciferase; whole cells), mouse GLP-1R. It is filed as cell-based. The settings on record: BHK cells expressing mouse GLP-1 receptor.
Procedure: as §1, §2, §3

The conditions of series [4]: glucagon: depending on the route of administration; cited from earlier work.
The target of series [5] is T4, mouse GIP receptor (mouse, UniProt Q0P543 19-460).
T4 sequence (looked up): T1 sequence (Q0P543 19-460)
Briefly: cell-based or functional assay.

The target in series [6] is mouse Gcg receptor (mouse, UniProt Q61606 27-485). Briefly: cell-based or functional assay.
Chain of mouse Gcg receptor (mouse, UniProt Q61606 27-485) (Q61606 27-485): as the sequence (Q61606 27-485) above
For series [7], the target named is T5, mouse GLP-1 receptor (mouse, UniProt O35659 22-463).
T5 sequence (looked up): T3 sequence (O35659 22-463)
Briefly: cell-based or functional assay.

Series [8] has as its target human glucagon receptor (human, UniProt P47871 26-477). Kind of series: cell-based or functional assay.
The target of series [9] is human glucagon-like peptide 1 receptor (human, UniProt P43220 24-463). Briefly: cell-based or functional assay.
Series [10] addresses T6, human glucose-dependent insulinotropic polypeptide receptor (human, UniProt P48546 22-466).
T6 sequence (looked up): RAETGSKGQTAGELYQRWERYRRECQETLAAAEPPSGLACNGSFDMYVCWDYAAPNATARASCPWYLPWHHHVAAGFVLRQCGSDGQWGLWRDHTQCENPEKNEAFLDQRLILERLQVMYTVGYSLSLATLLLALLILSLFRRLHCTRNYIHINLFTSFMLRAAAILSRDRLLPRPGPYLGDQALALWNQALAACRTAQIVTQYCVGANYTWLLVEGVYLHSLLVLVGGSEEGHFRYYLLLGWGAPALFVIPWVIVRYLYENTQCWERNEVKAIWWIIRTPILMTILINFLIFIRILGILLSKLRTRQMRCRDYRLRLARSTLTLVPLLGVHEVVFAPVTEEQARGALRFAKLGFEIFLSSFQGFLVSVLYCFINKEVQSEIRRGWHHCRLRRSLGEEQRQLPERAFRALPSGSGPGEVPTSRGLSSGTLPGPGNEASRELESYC
Kind of series: cell-based or functional assay.

*1 amine or outer side, *2 acyl side, *3 side chain or, on linkers, in order; H or OH if unused. Where a SMILES comes first, the peptide text is derived from it. Where no end group is shown, it is not given here. Side-chain parts run from the residue outwards. [ ]: non-standard residue; d: D form. The star is where a group is joined. X1 = O=C(O)CCCCCCCCCCCCCCCCCCC(=O)NCC1CCC(C(=O)*)CC1; γGlu = O=C(O)[C@H](CCC(=O)[*:2])N[*:1]; εLys = N[C@@H](CCCCN[*:1])C(=O)[*:2]; Aib = CC(C)(N)C(=O)O

Chain of human glucagon receptor (P47871 26-477): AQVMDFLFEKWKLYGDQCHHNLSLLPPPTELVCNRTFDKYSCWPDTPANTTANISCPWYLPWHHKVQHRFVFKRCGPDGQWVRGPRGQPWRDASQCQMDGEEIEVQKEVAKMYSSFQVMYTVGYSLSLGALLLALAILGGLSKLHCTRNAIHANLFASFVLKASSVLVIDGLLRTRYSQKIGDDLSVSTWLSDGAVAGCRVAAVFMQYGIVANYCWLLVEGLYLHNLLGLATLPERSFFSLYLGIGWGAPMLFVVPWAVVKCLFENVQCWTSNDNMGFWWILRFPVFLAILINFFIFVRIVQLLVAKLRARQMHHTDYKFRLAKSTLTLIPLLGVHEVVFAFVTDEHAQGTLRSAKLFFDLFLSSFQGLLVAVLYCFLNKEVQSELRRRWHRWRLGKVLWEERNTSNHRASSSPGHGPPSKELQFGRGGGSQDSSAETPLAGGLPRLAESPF

For `CC[C@H](C)[C@H](NC(=O)[C@H](CO)NC(=O)[C@H](Cc1ccc(O)cc1)NC(=O)[C@H](CC(=O)O)NC(=O)[C@H](CO)NC(=O)[C@@H](NC(=O)[C@H](Cc1ccccc1)NC(=O)[C@@H](NC(=O)CNC(=O)[C@H](Cc1c[nH]cn1)NC(=O)C(C)(C)NC(=O)[C@@H](N)Cc1c[nH]cn1)[C@@H](C)O)[C@@H](C)O)C(=O)N[C@@H](Cc1ccc(O)cc1)C(=O)N[C@@H](CC(C)C)C(=O)N[C@@H](CCC(=O)O)C(=O)N[C@@H](CCCCNC(=O)[C@@H](N)CCCCNC(=O)[C@@H](N)CCCCNC(=O)CC[C@H](NC(=O)C1CCC(CNC(=O)CCCCCCCCCCCCCCCCCCC(=O)O)CC1)C(=O)O)C(=O)N[C@@H](CCC(N)=O)C(=O)N[C@@H](C)C(=O)N[C@@H](C)C(=O)NC(C)(C)C(=O)N[C@@H](CCC(=O)O)C(=O)N[C@@H](Cc1ccccc1)C(=O)N[C@H](C(=O)N[C@@H](CCC(N)=O)C(=O)N[C@@H](Cc1c[nH]c2ccccc12)C(=O)N[C@@H](CC(C)C)C(=O)N[C@@H](CC(C)C)C(=O)N[C@@H](CCC(=O)O)C(=O)NCC(=O)NCC(=O)N1CCC[C@H]1C(=O)N[C@@H](CO)C(=O)N[C@@H](CO)C(=O)NCC(=O)N[C@@H](C)C(=O)N1CCC[C@H]1C(=O)N1CCC[C@H]1C(=O)N1CCC[C@H]1C(=O)N[C@@H](CO)C(N)=O)C(C)C` (stereo partly shown) [Compound No. 21] (H-H[Aib]HGTFTSDYSIYLEK([εLys-εLys-γGlu-X1])QAA[Aib]EFVQWLLEGGPSSGAPPPS-NH2; N-terminus assumed), in [1], the “mGIPR CRE Luc EC50 (pM)” value is given as “similar”. Further, the “mGcgR CRE Luc EC50 (pM)” value in series [2] was “reduced”. Moreover, the “mGLP-1R CRE Luc EC50 (pM)” value in [3] was “similar”.
Take `CC[C@H](C)[C@H](NC(=O)[C@H](CO)NC(=O)[C@H](Cc1ccc(O)cc1)NC(=O)[C@H](CC(=O)O)NC(=O)[C@H](CO)NC(=O)[C@@H](NC(=O)[C@H](Cc1ccccc1)NC(=O)[C@@H](NC(=O)CNC(=O)[C@H](CCC(=O)O)NC(=O)[C@H](C)NC(=O)[C@@H](N)Cc1ccc(O)cc1)[C@@H](C)O)[C@@H](C)CC)C(=O)N[C@@H](C)C(=O)N[C@@H](CCSC)C(=O)N[C@@H](CC(=O)O)C(=O)N[C@@H](CCCCN)C(=O)N[C@H](C(=O)N[C@@H](Cc1c[nH]cn1)C(=O)N[C@@H](CCC(N)=O)C(=O)N[C@@H](CCC(N)=O)C(=O)N[C@@H](CC(=O)O)C(=O)N[C@@H](Cc1ccccc1)C(=O)N[C@H](C(=O)N[C@@H](CC(N)=O)C(=O)N[C@@H](Cc1c[nH]c2ccccc12)C(=O)N[C@@H](CC(C)C)C(=O)N[C@@H](CC(C)C)C(=O)N[C@@H](C)C(=O)N[C@@H](CCC(N)=O)C(=O)N[C@@H](CCCCN)C(=O)NCC(=O)N[C@@H](CCCCN)C(=O)N[C@@H](CCCCN)C(=O)N[C@@H](CC(N)=O)C(=O)N[C@@H](CC(=O)O)C(=O)N[C@@H](Cc1c[nH]c2ccccc12)C(=O)N[C@@H](CCCCN)C(=O)N[C@@H](Cc1c[nH]cn1)C(=O)N[C@@H](CC(N)=O)C(=O)N[C@H](C(=O)N[C@H](C(=O)N[C@@H](CCC(N)=O)C(=O)O)[C@@H](C)O)[C@@H](C)CC)C(C)C)[C@@H](C)CC` [hGIP, Native Human GIP]: the “half-life as measured in man” value in series [4] is 5 to 7 min.

B1: Compound No. 30 (peptide)
peptide: H[Aib]HGTFTSDYSIYLEKKYA[Aib]EFVQWLLEGGPSSGAPPPS-NH2
modifications: not fully specified (residue 16); printed as H-Aib-HGTFTSDYSIYLE-K[(2S)-2-amino-6-[[(2S)-2-amino-6-[[(4S)-4-carboxy-4-(19-carboxynonadecanoylamino)butanoyl]amino]hexanoyl]amino]hexanoyl]-KYA-Aib-EFVQWLLEGGPSSGAPPPS-NH2
Regarding B1, the “mGIPR CRE Luc EC50 (pM)” value in [5] came to 11.2 pM. In addition, the “mGcgR CRE Luc EC50 (pM)” value in [6] is 5.7 pM. Also, the “mGLP-1R CRE Luc EC50 (pM)” value in series [7] came out at 2.6 pM. The “hGcgR CRE Luc EC50 (pM)” value in [8] came out at 9.3 pM. Further, the “hGLP-1R CRE Luc EC50 (pM)” value in series [9] was found to be 3.9 pM. Further, the “hGIPR CRE Luc EC50 (pM)” value in [10] was found to be 15.6 pM.

B2: Compound No. 21 (peptide)
peptide: H[Aib]HGTFTSDYSIYLEKQAA[Aib]EFVQWLLEGGPSSGAPPPS-NH2
modifications: not fully specified (residue 16)
Take B2: the “mGIPR CRE Luc EC50 (pM)” value in series [5] is 9.8 pM. In addition, in series [6], the “mGcgR CRE Luc EC50 (pM)” value is 56.1 pM. Further, in [7], the “mGLP-1R CRE Luc EC50 (pM)” value was determined as 2.9 pM. The “hGcgR CRE Luc EC50 (pM)” value in [8] was 26.6 pM. The “hGLP-1R CRE Luc EC50 (pM)” value in [9] came to 3 pM. Further, the “hGIPR CRE Luc EC50 (pM)” value in series [10] was 3.2 pM.

B3: Compound No. 33 (peptide)
peptide: H[Aib]HGTFTSDYSIYLEKKAA[Aib]EFVQWLLEGGPSSGAPPPS-NH2
modifications: not fully specified (residue 16); printed as H-Aib-HGTFTSDYSIYLE-K[(2S)-2-amino-6-[[(2S)-2-amino-6-[[(4S)-4-carboxy-4-(19-carboxynonadecanoylamino)butanoyl]amino]hexanoyl]amino]hexanoyl]-KAA-Aib-EFVQWLLEGGPSSGAPPPS-NH2
B3: the “mGIPR CRE Luc EC50 (pM)” value in [5] amounted to 10 pM. Also, the “mGcgR CRE Luc EC50 (pM)” value in series [6] was found to be 8.1 pM. In addition, the “mGLP-1R CRE Luc EC50 (pM)” value in [7] was 2.2 pM. In series [8], the “hGcgR CRE Luc EC50 (pM)” value is 13.7 pM. In addition, the “hGLP-1R CRE Luc EC50 (pM)” value in [9] worked out at 3.3 pM. Besides, in series [10], the “hGIPR CRE Luc EC50 (pM)” value stood at 7.3 pM.

The values are drawn from patent US20230391845A1, “GLP-1, GIP AND GLUCAGON RECEPTOR TRIPLE AGONISTS” (priority 2020, published 2023).
